Reference: the RNAGym collection of RNA variant scans (doi:10.7554/elife.90254)

B1: LINE1-mini (parent)
chain: GGCAGAGCUCAACACAGCGUGGCAAAGUGGCUGUGGCUAGACUGCC

Variants of: B1
Experiment: self-cleavage, relative activity (ratio to wild type); higher = more cleavage; in vitro, sequencing; the parent is a self-cleaving ribozyme

| Variant | self-cleavage |
| --- | --- |
| A4C U32C | 0.1 |
| C37U C46A | 0.07 |
| A12G U34A | 0.03 |
| G27A C45G | 0.51 |
| U9G G21A | 0.13 |
| C13U A24U | 0.16 |
| G33U U38C | 0.08 |
| U20C C31G | 0.07 |
| G5U G29C | 0.04 |
| G5A G21U | 0.14 |
| C10U G17U | 0.33 |
| A24G U28G | 0.45 |
| G5U U34A | 0.04 |
| A16U C31A | 0.21 |
| A11U C23A | 0.16 |
| G2A A39U | 0.76 |
| C8A G27C | 0.12 |
| C13U G27U | 0.17 |
| C13U G27A | 0.17 |
| A16G G36U | 0.04 |
| C18A G35C | 0.05 |
| G36U C42G | 0.03 |
| G40A G44A | 0.19 |
| U34G C42A | 0.07 |

| Variant | self-cleavage |
| --- | --- |
| G2U A41C | 0.02 |
| C10U C18U | 0.34 |
| U32A G40U | 0.16 |
| U9C U43G | 0.01 |
| A16G G21C | 0.34 |
| C23A G30A | 1.34 |
| U9C G22C | 0.03 |
| G2A C37U | 0.28 |
| G2U C45A | 0.45 |
| G36U A39G | 0.05 |
| C18A G22A | 1.07 |
| G1A U38A | 1.36 |
| A12C A41U | 0.03 |
| A26G C37G | 0.03 |
| A14U A24C | 0.15 |
| G30U C45G | 0.29 |
| A25G C45U | 0.45 |
| G1C U43C | 0.03 |
| A12C G44U | 0.03 |
| G1U A4U | 0.22 |
| A11G C15U | 0.03 |
| G5U A6G | 0.07 |
| A11C C15G | 0.02 |
| G5U C18A | 0.07 |

| Variant | self-cleavage |
| --- | --- |
| C10A C18A | 0.07 |
| A24U C42U | 0.4 |
| U38C A41G | 0.11 |
| U9A C15U | 0.17 |
| U9C A14U | 0.07 |
| A11U C31A | 0.04 |
| G30U G35C | 0.07 |
| G36U G40U | 0.19 |
| G1C G22C | 0.19 |
| A12U G33A | 0.05 |
| G7A U32C | 0.17 |
| C3G C10A | 0.05 |
| C3G A39U | 0.27 |
| G7C C31G | 0.06 |
| A26C U38C | 0.83 |
| G7U A39C | 0.19 |
| G1A C42A | 0.06 |
| C10U A12G | 0.02 |
| A14C G36C | 0.02 |
| A16G C31G | 0.02 |
| C31A G36U | 0.12 |
| G19U A39G | 0.06 |
| C13U U28C | 0.28 |
| C15G U20A | 0.09 |

| Variant | self-cleavage |
| --- | --- |
| G35C C42G | 0.04 |
| A6G A39C | 0.15 |
| A14U G40C | 0.08 |
| G1A U32G | 0.09 |
| A25G C37G | 0.03 |
| G33C G36U | 0.06 |
| C3U U32G | 0.09 |
| C18G G19C | 0.83 |
| G27A U43G | 0.05 |
| A24U U28G | 0.39 |
| A12U A26C | 0.16 |
| G21U A41C | 0.06 |
| G21C G27U | 0.84 |
| C3A C45U | 0.53 |
| C10A G44U | 0.03 |
| C8G C10G | 0.02 |
| A4C U9C | 0.04 |
| G1A C46A | 2.61 |
| C18A G29A | 0.69 |
| A14U G27C | 0.16 |
| G29C U43C | 0.26 |
| G44C C45U | 0.06 |
| G29A G33U | 0.12 |
| G22C G40C | 0.08 |

| Variant | self-cleavage |
| --- | --- |
| A24U C37U | 0.07 |
| A6G C18U | 0.08 |
| G22U U38A | 0.46 |
| A16C U32C | 0.09 |
| C18A U32C | 0.16 |
| G36A C45G | 0.13 |
| C37G C45U | 0.03 |
| G29U U43A | 0.2 |
| A24G A39G | 0.07 |
| C15G G35C | 0.13 |
| A14C A25G | 0.07 |
| C42G U43A | 0.06 |
| G2U U32G | 0.03 |
| G17C G19A | 1.14 |
| C8U A26U | 0.36 |
| C8U A26G | 0.29 |
| A12C A39C | 0.03 |
| U34G G40C | 0.07 |
| U43G | 0.12 |
| G29A C42G | 0.04 |
| G17U C31G | 1.67 |
| A4C U38A | 0.12 |
| G19U C46A | 1.08 |
| C13G C37A | 0.13 |

| Variant | self-cleavage |
| --- | --- |
| U20C G27C | 0.28 |
| C8A A39U | 0.45 |
| A6G U9C | 0.02 |
| U9G C13G | 0.08 |
| G5U C23A | 0.11 |
| G2U C10G | 0.02 |
| A11G C18G | 0.02 |
| A4G A6C | 0.14 |
| A16C G40U | 0.03 |
| G2U U9C | 0.01 |
| G5C G40A | 0.1 |
| G17U C45G | 0.05 |
| G1A C45U | 1.19 |
| A11C G40A | 0.02 |
| A24C G33U | 0.04 |
| A4C C13A | 0.15 |
| G22A C31A | 0.2 |
| A25G A41C | 0.04 |
| C15G A26G | 0.03 |
| U20C A41G | 1 |
| A14C G35C | 0.04 |
| A4U G27A | 0.19 |
| A4U C18G | 0.08 |
| U20A U28G | 0.28 |

| Variant | self-cleavage |
| --- | --- |
| G21C C37G | 0.05 |
| G5C U32A | 0.06 |
| A39U C45U | 0.85 |
| G7C U38G | 0.02 |
| U32C U38G | 0.01 |
| G22U C31U | 0.4 |
| A12C C45G | 0.07 |
| U28G A41C | 0.04 |
| C15G U32C | 0.03 |
| A26U G33A | 0.09 |
| C13G G17C | 0.03 |
| G21U G22U | 1.4 |
| A4U U28A | 0.19 |
| C31A U38C | 0.16 |
| C37A A41G | 0.12 |
| G5A C18A | 0.1 |
| A25C G33C | 0.04 |
| A16U A41C | 0.05 |
| G5A U34A | 0.07 |
| U9A G35A | 0.15 |
| U32G C42U | 0.11 |
| A11U G19U | 0.12 |
| G19U G40C | 0.05 |
